The results in this text go back to article doi:10.1101/2025.02.24.640013, “Exploration of the influence of environmental changes on the conformational and amyloidogenic landscapes of the zinc finger protein DPF3a by combining biophysical and molecular dynamics approaches” (bioRxiv, 2025).

The data set concerns the molecule itself. Description: negative-stain TEM + far-UV CD + autofluorescence of amyloid fibril formation; tag-free DPF3a alone, ~4.5 uM (0.18 mg/mL), incubated at ~25 °C for seven days in 50 mM Tris-HCl pH 8, 150 mM NaCl (reference); also at pH 12 in 150 mM NaCl and at pH 8 in 300 and 500 mM NaCl, where fibrils formed later, shorter and in lower number.

B1: double PHD fingers 3 (DPF3) protein, isoform DPF3a, full-length (natural protein, human, UniProt Q92784-2 1-357, looked up)
chain: MATVIHNPLKALGDQFYKEAIEHCRSYNSRLCAERSVRLPFLDSQTGVAQNNCYIWMEKRHRGPGLAPGQLYTYPARCWRKKRRLHPPEDPKLRLLEIKPEVELPLKKDGFTSESTTLEALLRGEGVEKKVDAREEESIQEIQRVLENDENVEEGNEEEDLEEDIPKRKNRTRGRARGSAGGRRRHDAASQEDHDKPYVCDICGKRYKNRPGLSYHYAHTHLASEEGDEAQDQETRSPPNHRNENHRPQKGPDGTVIPNNYCDFCLGGSNMNKKSGRPEELVSCADCGRSAHLGGEGRKEKEAAAAARTTEDLFGSTSESDTSTFHGFDEDDLEEPRSCRGRRSGRGSPTADKKGSC
notes: Human DPF3, isoform DPF3a, full length; molecular mass 40244 Da; Metalloprotein with a C2H2 zinc finger; also called full-length DPF3a; source: E. coli BL21 Rosetta (DE3), purified (GSTrap FF, on-column TEV cleavage of the GST tag); not shown: GST, N-terminal, cleaved
As for B1, the binding result is listed as “binds”.
